Reference: article PMC10433817

System: ThserRS (seryl-tRNA synthetase, GME12055) (Trametes hirsuta AH28-2)
Experiment: fluorescence polarization
Settings: 5 mM Mg2+; 25 mM HEPES pH 6.5, 5 mM MgCl2, 150 mM KCl, 1 mM DTT, 5% glycerol, 16 C, 30 min; probe 0.5 uM (EMSA) or 40 nM (FP); further truncations of the 32-bp probe gave …

“lacA promoter 32-bp minimal probe (-462 to -431)” gave a Kd of 920 nM.
